A value given as a limit tells only on which side of the number the result lay.

The target of this experiment is randomly biotinylated GCase (Velaglucerase) (human, UniProt P04062, biotin, randomly on lysine residues (EZ-Link Sulfo-NHS-LC-Biotin); glycosylated). The experiment is described as follows: BLI.
Sequence of randomly biotinylated GCase (Velaglucerase) (P04062 40-536): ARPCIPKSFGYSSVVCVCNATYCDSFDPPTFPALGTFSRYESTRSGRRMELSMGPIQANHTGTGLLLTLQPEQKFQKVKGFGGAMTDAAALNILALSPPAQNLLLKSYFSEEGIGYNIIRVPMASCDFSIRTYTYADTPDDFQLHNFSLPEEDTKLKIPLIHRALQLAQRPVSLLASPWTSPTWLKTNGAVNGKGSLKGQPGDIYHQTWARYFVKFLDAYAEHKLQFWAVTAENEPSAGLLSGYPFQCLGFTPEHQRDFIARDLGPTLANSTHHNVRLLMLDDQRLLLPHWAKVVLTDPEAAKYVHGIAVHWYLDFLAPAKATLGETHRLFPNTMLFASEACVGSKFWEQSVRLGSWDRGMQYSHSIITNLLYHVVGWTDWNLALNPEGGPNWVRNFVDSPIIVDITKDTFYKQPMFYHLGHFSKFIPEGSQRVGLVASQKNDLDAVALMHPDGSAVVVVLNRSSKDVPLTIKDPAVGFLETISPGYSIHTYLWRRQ

B1: Nb1, C-terminally LPETGG-His6-EPEA-tagged (pHEN29) (VHH)
VHH: QVQLVESGGGLVQPGGSLRLSCAASGFTLDYYAIGWFRQAPGKEREGVSCISSSDGSTYYADSAKGRFTISRDNAKNTVYLQMNSLKPEDTAVYYCATDRGQCTYYSSGYYRDLRWYDYWGQGTQVTVSS
Broadly, the Kd is a measure of binding affinity in units of concentration. On to B1, for which the Kd was under 5 nM.

The values above are taken from article PMC12117155 (Nature Communications, 2025).
